Source: IntAct's records for PubMed 31515488

B1: Aminoacylase-1 (Homo sapiens), Q03154 (parent)
chain: MTSKGPEEEHPSVTLFRQYLRIRTVQPKPDYGAAVAFFEETARQLGLGCQKVEVAPGYVVTVLTWPGTNPTLSSILLNSHTDVVPVFKEHWSHDPFEAFKDSEGYIYARGAQDMKCVSIQYLEAVRRLKVEGHRFPRTIHMTFVPDEEVGGHQGMELFVQRPEFHALRAGFALDEGIANPTDAFTVFYSERSPWWVRVTSTGRPGHASRFMEDTAAEKLHKVVNSILAFREKEWQRLQSNPHLKEGSVTSVNLTKLEGGVAYNVIPATMSASFDFRVAPDVDFKAFEEQLQSWCQAAGEGVTLEFAQKWMHPQVTPTDDSNPWWAAFSRVCKDMNLTLEPEIMPAATDNRYIRAVGVPALGFSPMNRTPVLLHDHDERLHEAVFLRGVDIYTRLLPALASVPALPSDS
B2: Probable splicing factor YJU2B (Homo sapiens), P13994 (parent)
chain: MGERKGVNKYYPPDFNPEKHGSLNRYHNSHPLRERARKLSQGILIIRFEMPYNIWCDGCKNHIGMGVRYNAEKKKVGNYYTTPIYRFRMKCHLCVNYIEMQTDPANCDYVIVSGAQRKEERWDMADNEQVLTTEHEKKQKLETDAMFRLEHGEADRSTLKKALPTLSHIQEAQSAWKDDFALNSMLRRRFREKKKAIQEEEERDQALQAKASLTIPLVPETEDDRKLAALLKFHTLDSYEDKQKLKRTEIISRSWFPSAPGSASSSKVSGVLKKLAQSRRTALATSPITVGDLGIVRRRSRDVPESPQHAADTPKSGEPRVPEEAAQDRPMSPGDCPPETTETPKCSSPRGQEGSRQDKPLSPAGSSQEAADTPDTRHPCSLGSSLVADYSDSESE
B3: Protein Dr1 (Homo sapiens), Q01658 (parent)
chain: MASSSGNDDDLTIPRAAINKMIKETLPNVRVANDARELVVNCCTEFIHLISSEANEICNKSEKKTISPEHVIQALESLGFGSYISEVKEVLQECKTVALKRRKASSRLENLGIPEEELLRQQQELFAKARQQQAELAQQEWLQMQQAAQQAQLAAASASASNQAGSSQDEEDDDDI
B4: Histone-lysine N-methyltransferase SMYD1 (Homo sapiens), Q8NB12 (parent)
chain: MTIGRMENVEVFTAEGKGRGLKATKEFWAADIIFAERAYSAVVFDSLVNFVCHTCFKRQEKLHRCGQCKFAHYCDRTCQKDAWLNHKNECSAIKRYGKVPNENIRLAARIMWRVEREGTGLTEGCLVSVDDLQNHVEHFGEEEQKDLRVDVDTFLQYWPPQSQQFSMQYISHIFGVINCNGFTLSDQRGLQAVGVGIFPNLGLVNHDCWPNCTVIFNNGNHEAVKSMFHTQMRIELRALGKISEGEELTVSYIDFLNVSEERKRQLKKQYYFDCTCEHCQKKLKDDLFLGVKDNPKPSQEVVKEMIQFSKDTLEKIDKARSEGLYHEVVKLCRECLEKQEPVFADTNIYMLRMLSIVSEVLSYLQAFEEASFYARRMVDGYMKLYHPNNAQLGMAVMRAGLTNWHAGNIEVGHGMICKAYAILLVTHGPSHPITKDLEAMRVQTEMELRMFRQNEFMYYKMREAALNNQPMQVMAEPSNEPSPALFHKKQ
partner: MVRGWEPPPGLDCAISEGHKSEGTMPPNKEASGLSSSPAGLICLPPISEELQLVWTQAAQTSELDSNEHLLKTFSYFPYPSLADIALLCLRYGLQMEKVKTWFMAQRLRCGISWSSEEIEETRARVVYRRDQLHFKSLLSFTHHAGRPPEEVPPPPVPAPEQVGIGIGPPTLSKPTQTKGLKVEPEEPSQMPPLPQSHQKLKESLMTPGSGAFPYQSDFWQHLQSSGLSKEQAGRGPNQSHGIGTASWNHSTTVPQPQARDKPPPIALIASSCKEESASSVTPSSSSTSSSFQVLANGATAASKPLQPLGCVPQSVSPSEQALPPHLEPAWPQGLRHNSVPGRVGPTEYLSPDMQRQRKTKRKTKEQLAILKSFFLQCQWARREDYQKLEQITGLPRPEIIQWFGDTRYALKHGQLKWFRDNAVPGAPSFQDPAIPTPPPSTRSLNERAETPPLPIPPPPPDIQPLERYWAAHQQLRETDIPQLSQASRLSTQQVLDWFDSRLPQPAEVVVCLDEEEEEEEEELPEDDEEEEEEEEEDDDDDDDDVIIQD
B5: Transcription factor 12 (Homo sapiens), Q99081 (parent)
chain: MNPQQQRMAAIGTDKELSDLLDFSAMFSPPVNSGKTRPTTLGSSQFSGSGIDERGGTTSWGTSGQPSPSYDSSRGFTDSPHYSDHLNDSRLGAHEGLSPTPFMNSNLMGKTSERGSFSLYSRDTGLPGCQSSLLRQDLGLGSPAQLSSSGKPGTAYYSFSATSSRRRPLHDSAALDPLQAKKVRKVPPGLPSSVYAPSPNSDDFNRESPSYPSPKPPTSMFASTFFMQDGTHNSSDLWSSSNGMSQPGFGGILGTSTSHMSQSSSYGNLHSHDRLSYPPHSVSPTDINTSLPPMSSFHRGSTSSSPYVAASHTPPINGSDSILGTRGNAAGSSQTGDALGKALASIYSPDHTSSSFPSNPSTPVGSPSPLTGTSQWPRPGGQAPSSPSYENSLHSLQSRMEDRLDRLDDAIHVLRNHAVGPSTSLPAGHSDIHSLLGPSHNAPIGSLNSNYGGSSLVASSRSASMVGTHREDSVSLNGNHSVLSSTVTTSSTDLNHKTQENYRGGLQSQSGTVVTTEIKTENKEKDENLHEPPSSDDMKSDDESSQKDIKVSSRGRTSSTNEDEDLNPEQKIEREKERRMANNARERLRVRDINEAFKELGRMCQLHLKSEKPQTKLLILHQAVAVILSLEQQVRERNLNPKAACLKRREEEKVSAVSAEPPTTLPGTHPGLSETTNPMGHM
partner: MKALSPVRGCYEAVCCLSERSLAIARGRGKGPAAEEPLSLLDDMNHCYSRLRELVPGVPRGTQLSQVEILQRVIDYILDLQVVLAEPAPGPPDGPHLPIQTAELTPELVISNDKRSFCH

Variants of: B1
Details: with 8odp_human NUDT1, P36639

Variant | effect of a mutation on the interaction
R197W | with no effect

Variants of: B1
Details: with 8odp_human NUDT1, P36639
Remark: another data set of the same source

Variant | effect of a mutation on the interaction
E381D | with no effect

Variants of: B2
Details: with znf24_human ZNF24, P17028
znf24_human ZNF24, P17028, sequence (P17028 whole entry): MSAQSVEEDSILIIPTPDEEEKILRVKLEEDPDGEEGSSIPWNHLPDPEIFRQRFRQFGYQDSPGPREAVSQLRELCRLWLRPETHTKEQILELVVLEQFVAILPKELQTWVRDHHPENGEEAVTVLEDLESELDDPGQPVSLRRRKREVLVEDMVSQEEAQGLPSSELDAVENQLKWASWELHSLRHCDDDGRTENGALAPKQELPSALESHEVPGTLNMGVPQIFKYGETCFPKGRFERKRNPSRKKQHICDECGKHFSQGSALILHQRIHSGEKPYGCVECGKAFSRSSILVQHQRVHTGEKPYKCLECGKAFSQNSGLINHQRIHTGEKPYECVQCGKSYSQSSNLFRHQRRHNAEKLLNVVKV

Variant | effect of a mutation on the interaction
S22C | with no effect

Variants of: B2
Details: with traf2_human TRAF2, Q12933
traf2_human TRAF2, Q12933, sequence (Q12933 whole entry): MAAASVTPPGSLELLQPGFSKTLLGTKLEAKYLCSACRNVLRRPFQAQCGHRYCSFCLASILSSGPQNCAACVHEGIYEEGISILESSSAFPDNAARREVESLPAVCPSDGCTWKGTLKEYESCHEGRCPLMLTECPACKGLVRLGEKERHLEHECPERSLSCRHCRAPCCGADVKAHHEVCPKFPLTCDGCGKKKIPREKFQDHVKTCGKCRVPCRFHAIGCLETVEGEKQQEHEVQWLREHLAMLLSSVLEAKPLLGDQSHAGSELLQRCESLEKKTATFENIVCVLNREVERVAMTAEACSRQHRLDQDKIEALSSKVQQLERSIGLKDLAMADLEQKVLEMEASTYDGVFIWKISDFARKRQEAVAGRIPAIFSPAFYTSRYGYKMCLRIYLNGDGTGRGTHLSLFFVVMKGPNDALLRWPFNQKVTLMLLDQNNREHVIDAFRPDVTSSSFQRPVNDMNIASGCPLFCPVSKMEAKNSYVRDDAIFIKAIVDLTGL

Variant | effect of a mutation on the interaction
S22C | with no effect

Variants of: B3
Details: with dpoe3_human POLE3, Q9NRF9
dpoe3_human POLE3, Q9NRF9, sequence (Q9NRF9 whole entry): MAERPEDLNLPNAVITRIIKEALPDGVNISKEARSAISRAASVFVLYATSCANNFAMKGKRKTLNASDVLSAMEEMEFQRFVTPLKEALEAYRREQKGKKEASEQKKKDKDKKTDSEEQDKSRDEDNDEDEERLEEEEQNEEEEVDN

Variant | effect of a mutation on the interaction
E171D | with no effect

Variants of: B3
Details: with tbp_human TBP

Variant | effect of a mutation on the interaction
E171D | with no effect

Variants of: B4
Details: with homez_human HOMEZ

Variant | effect of a mutation on the interaction
R441W | with no effect

Variants of: B5
Details: with id3_human ID3, Q02535

Variant | effect of a mutation on the interaction
L483R | with no effect
A458V | with no effect
N479S | with no effect
I11M | with no effect
